Assay results as given in the DeepSol protein solubility set.

Test: soluble on expression in E. coli; label from the status in PepcDB or PDB records

Row | Sequence | soluble on expression in E. coli
1 | GPGSMNQLISVINELHDAFAGVKMNIKLNLPQIAVVGSQSCGKSSVLESIVGKDFLPRGSGIVTRCPLVLQLVQLPKSNEEEWGEFLHIPNKKFYDFNEIQNEITRRTIEIAGPSAITDKPINLKVYSSAVLNLTLVDLPGLVMNAVGDQPKDIDRQIKDMVTRYVLPKNTIILAISPANTDLATSQSLRLAKQLDPEGVRTVGVLTKIDLMDKGTDCFDVLQNRVLQLRHGFVGVVCRSQQDINDCKSMEDARRSEYEFFANSPIYSPIAEEAGTAYLSKKLNFLLLEHIKAVIPDLKHHVDQLMEATKKQMEKLGMFEQDITEPTAQLLYLIKVFSDALNQTIDGGITDATKELLGGARLDYIFHECFATYVTSLSATKDLTDDYIRINTRNMAGMHATLFPSDQVFVALSKQQINRLEEPCIKCVTFVYEELGKIVEICAGKVDRYPNLKEAVIAICKKMLFDYRLPTSTHVRTIIKAERGFINVKHPMMDELAQRALSNIYGTTSGESSSPPRNSSGPNASAAGGTQADPKQSGKDIKKDDKRGVRDEKRPEKPKEQGNTDSAISPGNKSDMNDVPSRIMLGKTMTMHEQFMNSAIREMVEGYFSIVKGNVADQVPKAITLLMITRLREEVYARLVSELYSDKTAKALLSEPPGIATQRKAAKEMLEALTKAQNALNSVRDYQLTKEPASSMQAGT | soluble
2 | GAHMADLSLEKAAEVSWEEEAEHSGASHNILVEVQDDGTMKIKDEERDDTLGGGGSGGGGSGVLWDTPSPGIYRILQRGLLGRSQVGVGVFQEGVFHTMWHVTRGAVLMYQGKRLEPSWASVKKDLISYGGGWRFQGSWNAGEEVQVIAVEPGKNPKNVQTAPGTFKTPEGEVGAIALDFKPGTAGSPIVNREGKIVGLYGNGVVTTSGTYVSAIAQAKASQEGPLPEIEDEVFRK | soluble
3 | MNNILSEEVLNVTDFTTSRQLTLWKREDLQSPQLDDVAEEVPVALVYNGISHVVMMASPKDLTHFAMGFSLSEGIIDSPREIYGMDVVPSCNGLEVQIDLSSRRFMGLKARRRALAGRTGCGVCGVEQLNDIGKPVQPLPFSQTFNLGNLDRALKHLNDFQPTGKLTGCTHAAAWVMPSGELAGGHEDVGRHVALDKLLGRRATEGEEWRQGAALVSSRASYEMVQKSAMCGVEILFAVSAATTLAVEVAERCNLTLVGFCKPGRATIYTHPQRLIADLEHHHHHH | not soluble
4 | MVERIEDLNLPNAVIGRLIKEALPESASVSKEARAAIARAASVFAIFVTSSSTALAHKQNHKTITAKDILQTLTELDFESFVPSLTQDLEVYRKVVKEKKESKASKKDSNTAENANASATATAEEAPE | soluble
5 | MMKNMARKNQKAPWEEEEEIIWVSRTELKNDMLALQKLGEELVELKPSALAKFPLPEDLAEAIKDAQRFKNEARRRQLQYIGKLMRHIDPEPLQAALDKLRNKHSQTTALLHKLEQLRDRIVAEGDSAIEVAMEQYPEADRQRLRLLARQASKEKAGNKPPKSSREIFQLLKEAMLAKQEIEEESEDDLDSAE | not soluble
6 | MNTISGTHFNYHQVCRRKLWLFSAGITMEHTSDLVYEGKLIHETTYQQRPERYQELELDGIKIDFYDAKNRVVHEVKKSNKISPAHRLQLLYYLYVLERNGVLGATGILEYPTLRKKEEVILSDIDRERIREIEQEILQIISHEDCPPVIDSGICKNCSYYEFCFSGEEQ | not soluble
7 | MDTMAKINQFRDERNWRPHHNEKDLALSICLEAAELLELFQWKTAEEGIKQEERIKEELADVLIYSYMMADNLGFDLDEIIEEKLKKNALKYPVPH | not soluble
8 | MSLKGLTVGFLPKAVNNPYFTSADKGGEKALEELGSSYKEVGPSSATDTSGQVSYVNTLTQQQVDAMAVSAQDPGALCTALKQAMKNGIEVVTYDSDTKTGCRNAFVSQASAEDLGRTEVQLLAEQIGYKGEIAILSAAQTATNQNTWIGFMKDELKDPKYKNVKLVKVAYGNDDAQQSFQQTQGLLQEHPKLAGIISPTTVGIKAAAQYLSGSKYKGKVKLTGLGTPNDMRKYVKNGTVEGFELWDPAKLGELAARTAVALSSGQISGKEGETFKAGDMGSYTIGKDGEGHHHHHH | soluble
9 | MTTKLVRPSDQATSNQVPVPGALVPHLDQCALLLDIDGTLLDLAPTPREVWVPPELEQTLTNLLVRTSGALALVSGRSINDIDLIFAPMRLPAVGGHGAEMRLSGEGEAIATHAPPLDSELKSRLAAIARISPGILLEDKGYSLALHYRLAPHTEKAIYEAVAAIRAENPEAPLEVLPGKSVCEIKHSGFTKATGVLELMTRAPFKGRRPIFIGDDVTDETVFAIMPELRGLAFSVGRYSELTSGHFDEPRDVRNWLARLLEPANLEHHHHHH | soluble
10 | MGSDKIHHHHHHMAEVHVIGQIIGATGFSESSLFCKWGIHTGAAWKLLSGVREGQTQVDTPQIGDMAYWSHPIDLHFATKGLQGWPRLHLQVWSQDSFGRCQLAGYGFCHVPSSPGTHQLDCPTWRPLGSWREQLARAFVGGGPQLLHADTIYSGADRYRLHTAAGGTVHLGIGLLLRHFDRYGVEC | not soluble
11 | VNCVFITPDKMDGKRISYDYVVQQYEIQRLLQRRPLITLIDICKEITSGIRVKKEYYTDKNGYKIIAPGDIRNEVIYINELKVVQPEVVREKDIINNGDILITASGKSGQVIYVNEVLEGCVVTSDIIKITLRDRDKGIRLYKFLKSSIGQMLLNSIKIGILNKIFVEDVENLLIPEDFDTYQEDCSDDSTVYAEAEKLYRSAENIFYRVFDYKGEKKNLKHFYVTEYLDSHRLDPEYYSNFYTELYRVIHKNFDDVKWEELGELVEIKKADKPEISKNQKVKYFLLADIDPNFSIIKETHEDFYGNLSNRMRYIVRRGEIVTAKGGSATGTKGHATALITEKFDGLVTTDALYNLVPRRINPYYLLFLFKQPIILNQVNMFTKGTLYKLIQRNDFEKIKIPRLESSLEEQIVDKMMNYLSVLQNKF | not soluble
12 | MNNSRLFRLSRIVIALTAASGMMVNTANAKEEAKAATQYTQQVNQNYAKSLPFSDRQDFDDAQRGFIAPLLDEGILRDANGKVYYRADDYKFDINAAAPETVNPSLWRQSQINGISGLFKVTDKMYQVRGQDISNITFVEGEKGIIVIDPLVTPPAAKAALDLYFQHRPQKPIVAVIYTHSHTDHYGGVKGIISEADVKSGKVQVIAPAGFMDEAISENVLAGNIMSRRALYSYGLLLPHNAQGNVGNGLGVTLATGDPSIIAPTKTIVRTGEKMIIDGLEFDFLMTPGSEAPAEMHFYIPALKALCTAENATHTLHNFYTLRGAKTRDTSKWTEYLNETLDMWGNDAEVLFMPHTWPVWGNKHINDYIGKYRDTIKYIHDQTLHLANQGYTMNEIGDMIKLPPALANNWASRGYYGSVSHNARAVYNFYLGYYDGNPANLHPYGQVEMGKRYVQALGGSARVINLAQEANKQGDYRWSAELLKQVIAANPGDQVAKNLQANNFEQLGYQAESATWRGFYLTGAKELREGVHKFSHGTTGSPDTIRGMSVEMLFDFMAVRLDSAKAAGKNISLNFNMSNGDNLNLTLNDSVLNYRKTLQPQADASFYISREDLHAVLTGQAKMADLVKAKKAKIIGNGAKLEEIIACLDNFDLWVNIVTPN | soluble
13 | MDERPVLFFDSGIGGLTVLREVRSLIPEKQFIYVADDVGFPYGNWEENVLKNRILKIFTNLLTVYNPALCVIACNTVSTLMIADLRERFPHILFVGTVPAIKLAAEQTKSGFISVLATPGTVKRTYTHELINSFAGQCHVQLVGSEKLAGFAENYLRGQSVDLEELRNEILPCFVKKNGKHTDIIVLACTHYPFLLHFFREQALWHVQWIDPSKAIAKRTRSLLPQRIHHQTVKKYEDFALFTSQNITSSTKRLLKEFSLNITKGVDFKV | not soluble
14 | MSLQNAKLMLTCLAFAGLAALAGCSFPGVYKIDIQQGNVVTQDMIDQLRPGMTRRQVRFIMGNPLIVDTFHANRWDYLYSIQPGGGRRQQERVSLFFNDSDQLAGLNGDFMPGVSRDEAILGKEGSTTVTQPADQQKPEAQKEEPPKPGSTLEQLQREVDEAQPVPVPTPEPLDPSPQEGHHHHHH | soluble
15 | HRWITRPKFTHFDLHTLNWDLCLTQANHKSNLALEMLKMLLDSLPETVEKIQTALGQNDQATMLSTIHKLHGASCYCGVPTTQRLCQEIESALKRQTPVEDLEPEILELLDELTKVESAVKQVLSQLSAEITDDQKNGLL | soluble
16 | MKEYIAFDIGGTQIKYGIVSEIGRVLKRQTVATEIHLGGEQIIQKLIYVSKKIMNEHTITGIGISTAGIVDINKGIVTGGADHIPGYSTIPIIDRLQEILKVPVSIDNDVNCAAFGEKWNGSGREKDNFIMLTLGTGIGGAIFIDGKLYRGHSFSAGEWGNMLIEEKTFEEVASISGLIRLVSKYKGKGKWNGKRIFELYDKGDREVAQAVGIFFKHLAIGISNLAYIFNPETIIIGGGITDRGNEFLKEVKEEVSKYLNQEIYNNCEIELAQNGNCAGMIGAIYHFLHHHK | not soluble
17 | GKKDTQSITLEELAKIIKKCKHVVALTGSGTSAESNIPSFRGSSNSIWSKYDPRIYGTIWGFWKYPEKIWEVIRDISSDYEIEINNGHVALSTLESLGYLKSVVTQNVDGLHEASGNTKVISLHGNVFEAVCCTCNKIVKLNKIMLQKTSHFMHQLPPECPCGGIFKPNIILFGEVVSSDLLKEAEEEIAKCDLLLVIGTSSTVSTATNLCHFACKKKKKIVEINISKTYITNKMSDYHVCAKFSELTKVANILKGSSEKNKKIM | soluble
18 | MPNTIRLHRVLSAPPERVYRAFLDPLALAKWLPPEGFVCKVLEHDARVGGAYKMEFLAFASGQKHAFGGRYLELVPGERIRYTDRFDDAGLPGDMITTITLAPLSCGADLSIVQEGIPDAIPPENCYLGWQQSLKQLAALVEPDMPGLEHHHHHH | soluble
19 | MGSDKIHHHHHHMSKHQNDNPRVPHEAAPLRVLHVGPGQGQRGGIASVLAELSAQRARFRDAGVVVAIFETHGFQSMRSLLCFPLVDIPRFLFAVLKGVDLIHFHVSVRGSFYRKFLLYLLARLFGKRTIFHLHAGNFQDFWASNGPTTRKAVSRFIRGADAVVAVSSAIASELQGHQGVTRNLYVIGNTAYSAELAAGAALRDSSGGKRVDMTPYVAFAGRFTEGKGLDELLRAVAALNRRGLKVQLRLAGAGDMDRWTRAAIEYGVSDQVRFVGWLQGDAKLEFYRDAAVFCMPSHFEAFGISTLEAMFIGRPVIGTRVGGFLDLVEEGVTGYLVRCGDSHGLAERIRHLVERPELAHEMGRQAVSRALSRYSVDAIVSQYARCYRQVNGSRGA | not soluble
20 | MDDSTLRRKYPHHEWHAVNEGDSGAFVYQLTGGPEPQPELYAKIAPRAPENSAFDLSGEADRLEWLHRHGIPVPRVVERGADDTAAWLVTEAVPGVAAAEEWPEHQRFAVVEAMAELARALHELPVEDCPFDRRLDAAVAEARRNVAEGLVDLDDLQEERAGWTGDQLLAELDRTRPEKEDLVVCHGDLCPNNVLLDPGTCRVTGVIDVGRLGVADRHADIALAARELEIDEDPWFGPAYAERFLERYGAHRVDKEKLAFYQLLDEFF | not soluble
21 | MERDGYKCRICDHSYLDIHYKDGNVENKNLENLIVLCKQCHYRLHQKERMESIKQAFEDFLDELSKNPIEVVIDFSFKKIVESNEEKIRREIIQGFTRPFGVISRIQEKVRDAIMKEIEEEIEKEQASTPEHLRKVVLERNNYRCSVCGYGYLEVHHVDGNILNNTLDNLVTLCRRCHRKVHYHPSFHTTPEDMDKCIRSFHHEFYSTIYEIMKNKKGNIRISIKFDQLGVKGVKISRAQFKRINGLFNHEVINDGIFKQWEREIKNYLSRLEWEQQKEIYRNVYFLLECILPKDSFEAFVNLARKGKFDRRTLREAKKVLKNSIKLEHHHHHH | soluble
